The record followed here is paper PMC11468790, “New Bacterial Aryl Sulfotransferases: Effective Tools for Sulfation of Polyphenols” (Journal of Agricultural and Food Chemistry, 2024).

The subject of data set [1] is O=[N+]([O-])c1ccc(OS(=O)(=O)O)cc1. As to the kind of experiment: purified protein. Conditions: varied donor pNPS 0.02-50 mM, acceptor phenol (5-200 mM), 30 °C, activity buffer Tris-glycine pH 8.9.
Data set [2] has as its system T1, O=[N+]([O-])c1ccc(OS(=O)(=O)O)cc1.
T1 construct: C-terminal His6 tag, pET-26b(+) NcoI/SacI, E. coli BL21(DE3)pLysS, IMAC, ca. 70 kDa
Briefly: purified protein. Conditions: varied donor pNPS 0.02-50 mM, acceptor phenol (5-200 mM), 30 °C, activity buffer Tris-glycine pH 8.9. The class given is biochemical, Desulfosporosinus sp. HMP52.

Turning to DalAST (Desulfofalx alkaliphila), in data set [1], the Michaelis constant (Km) – broadly, the substrate concentration at which the rate is half of its maximum – turned out to be 34 ± 2 µM; the kcat (as a rule, the number of substrate molecules converted per active site and unit of time at saturation) was found to be 0.705 ± 0.007 s⁻¹; the kcat/Km (as a rule, the second-order rate constant that governs catalysis at low substrate concentration) came out at 21000 M⁻¹ s⁻¹.

For the substance DsAST (Desulfosporosinus sp. HMP52), in data set [2], the Km turned out to be 570 ± 20 µM, the kcat turned out to be 32.5 ± 0.4 s⁻¹ and the kcat/Km is 57000 M⁻¹ s⁻¹.
